In article PMC7735759, “Structural basis of TRPC4 regulation by calmodulin and pharmacological agents” (eLife, 2020):

Key:
TRPC4 [1] = target: T1, TRPC4 (Danio rerio, UniProt U3N7D8); experiment: cryo-EM structure at […] Å; also dose-dependent inhibition of (-)-Englerin A currents in TRPC4-expressing oocytes; format: binding
T1 construct: gene trpc4b; residues 2–915
T1 sequence (U3N7D8 2-915): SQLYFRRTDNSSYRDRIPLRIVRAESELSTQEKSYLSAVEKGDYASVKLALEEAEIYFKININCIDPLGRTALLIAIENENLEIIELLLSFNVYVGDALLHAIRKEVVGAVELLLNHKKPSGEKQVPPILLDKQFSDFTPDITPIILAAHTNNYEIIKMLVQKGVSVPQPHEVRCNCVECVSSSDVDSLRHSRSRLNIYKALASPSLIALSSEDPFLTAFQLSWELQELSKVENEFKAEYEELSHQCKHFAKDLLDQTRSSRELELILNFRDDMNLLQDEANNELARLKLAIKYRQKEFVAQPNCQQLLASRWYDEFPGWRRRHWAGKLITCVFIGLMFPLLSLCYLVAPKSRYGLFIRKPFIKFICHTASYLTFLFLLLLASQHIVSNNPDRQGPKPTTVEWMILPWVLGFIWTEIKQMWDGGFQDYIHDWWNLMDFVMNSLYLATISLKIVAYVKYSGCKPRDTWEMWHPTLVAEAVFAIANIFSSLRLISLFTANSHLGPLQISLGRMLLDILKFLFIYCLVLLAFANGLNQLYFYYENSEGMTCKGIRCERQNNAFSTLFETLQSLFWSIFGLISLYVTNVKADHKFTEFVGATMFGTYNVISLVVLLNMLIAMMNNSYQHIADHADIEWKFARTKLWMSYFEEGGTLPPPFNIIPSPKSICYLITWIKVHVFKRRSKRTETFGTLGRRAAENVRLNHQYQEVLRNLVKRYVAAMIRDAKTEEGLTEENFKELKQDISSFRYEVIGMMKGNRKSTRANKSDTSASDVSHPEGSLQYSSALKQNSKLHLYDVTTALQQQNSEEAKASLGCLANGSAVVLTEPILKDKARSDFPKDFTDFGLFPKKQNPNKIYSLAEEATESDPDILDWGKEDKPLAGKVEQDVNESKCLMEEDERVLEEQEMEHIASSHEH

TRPC4 [2] = target: T1, TRPC4; experiment: as above; format: binding; remark: listed apart in the source
[3] = target: Zebrafish TRPC4 (Danio rerio TRPC4, residues 2-915) (Danio rerio (zebrafish)); experiment: cryo-EM structure; TRPC4-CaM complex in LMNG, 10 mM calcium chloride, 10 µM CaM added; 3D sorting without symmetry for the stoichiometries
TRPC4 [4] = target: T1, TRPC4; experiment: cryo-EM structure at […] Å; also dose-dependent inhibition of (-)-Englerin A currents in TRPC4-expressing oocytes; format: binding; remark: listed apart in the source
[5] = target: Zebrafish TRPC4 (Danio rerio TRPC4, residues 2-915) (Danio rerio (zebrafish)); experiment: cryo-EM structure; TRPC4 alone: apo in LMNG, and in amphipols with 100 µM GFB-8438, GFB-9289 or GFB-8749; C4 symmetry

## O=C1CN(c2cn[nH]c(=O)c2Cl)CCN1C1CCCCC1 [GFB-9289, 4-chloro-5-(4-cyclohexyl-3-oxopiperazin-1-yl)-2,3-dihydropyridazin-3-one]
TRPC4 [1]
  cryo-EM structure at 3.2 Å; also dose-dependent inhibition of (-)-Englerin A cur: we found an extra density inside the VSL domain region of GFB-9289-bound TRPC4

## O=C1CN(c2cn[nH]c(=O)c2Cl)CCN1Cc1ccccc1C(F)(F)F [GFB-8438]
TRPC4 [2]
  cryo-EM structure at 3.6 Å; also dose-dependent inhibition of (-)-Englerin A cur: The shape of the density clearly indicated that it corresponds to the bound inhibitor.

## Mouse calmodulin (CaM) (from UniProt P0DP26 1-149) (natural protein)
[3]
  percent of TRPC4 channels with four CaM bound (fully saturated): 20%
  percent of TRPC4 channels with one CaM bound: 13%
  percent of TRPC4 channels with three CaM bound: 31%
  percent of TRPC4 channels with two CaM bound: 35%
  stoichiometry N (CaM per TRPC4 tetramer): < 4

## O=C1CN(c2cn[nH]c(=O)c2Cl)CCN1CC1CCC(F)(F)CC1 [GFB-8749]
TRPC4 [4]
  cryo-EM structure at 3.8 Å; also dose-dependent inhibition of (-)-Englerin A cur: an extra density was observed inside the VSL domain region of GFB-8749-bound TRPC4

## Zebrafish TRPC4 (Danio rerio TRPC4, residues 2-915) (natural protein)
[5]
  stoichiometry N: 4
[3]
  stoichiometry N: 4
